Article PMC12592377

Molecular target: HIV-1 capsid (CA) protein (HIV-1)
Test: cryo-EM structure; cryo-ET of cryo-FIB lamellae with template matching and subtomogram averaging (C6 symmetry kept) of CA hexamers in capsid lattices of isolated VLP cores incubated with permeabilized CEM cells, EGS-fixed; cores outside the nucleus (approaching and docking), traversing the NPC and imported

HIV-1 capsid (CA) protein (natural protein)
stoichiometry N: 6
